Biological target: human GLP-1 receptor (human) (UniProt P43220)
Test: cell-based or functional assay

Sequence of human GLP-1 receptor (human) (P43220 24-463): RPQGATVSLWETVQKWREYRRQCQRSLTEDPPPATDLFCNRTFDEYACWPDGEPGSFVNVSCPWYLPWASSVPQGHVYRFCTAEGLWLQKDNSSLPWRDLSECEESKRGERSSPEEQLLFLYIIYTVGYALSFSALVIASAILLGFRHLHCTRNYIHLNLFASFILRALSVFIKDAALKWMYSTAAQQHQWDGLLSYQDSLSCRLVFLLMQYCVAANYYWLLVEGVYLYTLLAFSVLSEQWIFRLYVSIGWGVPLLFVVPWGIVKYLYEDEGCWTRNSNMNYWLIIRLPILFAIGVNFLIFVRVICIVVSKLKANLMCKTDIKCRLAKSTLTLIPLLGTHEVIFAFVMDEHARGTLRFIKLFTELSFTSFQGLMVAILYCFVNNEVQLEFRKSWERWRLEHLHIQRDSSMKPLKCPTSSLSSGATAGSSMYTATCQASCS

- Human GLP1R EC50: 0.035 nM
Substance: Dulaglutide (Fc fusion)

— US20190330296A1
